Drawing on patent US20070129537A1 (University of California, published 2007), this text covers Kd for one molecule.

Ends that are not written are not given here.

In the experiment the target is T1, natural proline-rich peptide ligand C3G, PPPALPPKKR (peptide SEQ ID NO: 11).
T1 peptide: PPPALPPKKR-NH2
Put plainly: fluorescence-based titration (excitation 300 nm, emission 348 nm), 25 C, 0.5 uM protein, 1:1 complex assumed. The protocol: The ligated product is marked with an asterisk. […] The ligation product was by far the main product and could be easily isolated by semipreparative HPLC. Referring to FIG. 6B, characterization of the product by ES-MS confirmed the identity of the SH3 ligated domain. The ligated SH3 domain was readily purified by HPLC and refolded by flash dilution in 20 mM sodium phosphate, 100 mM NaCl at pH 7.2. The ligand binding activity of the synthetic SH3 domain was evaluated using a fluorescence-based titration assay. […] Referring to FIG. 6C, the equilibrium dissociation constant for binding of the synthetic SH3 domain to the natural proline-rich peptide ligand C3G i.e., […] (peptide SEQ ID NO: 11), was 0.9 μM. […]
Fluorescence-based Ligand Binding Assay. The equilibrium dissociation binding constant of synthetic SH3 domain for ligand SEQ ID NO: 11 was obtained using a fluorescence-based titration assay. […] Excitation was at 300 nm with a 2.5 nm slit and the fluorescence emission was monitored at 348 nm through a 5 nm slit. […] The dissociation constant was determined by changes in the fluorescence of the protein solution upon addition of the corresponding peptide ligand at defined concentrations; calculations were made assuming formation of a 1:1 complex. […]

B1: synthetic c-Crk N-terminal SH3 domain obtained by native chemical ligation of peptide thioester SEQ ID NO: 9 and peptide SEQ ID NO: 10 (other)
chain: AEYVRALFDFNGNDEEDLPFKKGCILRIRDKPEEQWWNAEDSEGKRGMIPVPYVEKYG
modifications: N-terminal acetyl (Ac-AEYV...); C-terminal amide implied (peptide SEQ ID NO: 10 made on Rink-amide resin); Cys introduced at the N-terminus of SEQ ID NO: 10 (ligation site); the -SEt thioester of SEQ ID NO: 9 is lost on ligation
notes: used at 0.5 uM in 20 mM sodium phosphate, 100 mM NaCl, pH 7.2; ESMS found 6894.1 Da (calculated 6891.7 Da); also called ligated SH3 domain; synthetic SH3 domain
Usually Kd stands for the constant that tells how readily two partners part at equilibrium. Low readings indicate a tighter complex, high ones a looser complex. As for B1, binding was put at a Kd of 900 nM.
